# Reference: patent publication US20120100141A1 (GlaxoSmithKline, published 2012)
# B1: 2xGLP-1 (7-37) A8G DOM7h-14 dAb fusion (DAT0114) (other)
# chain: HGEGTFTSDVSSYLEGQAAKEFIAWLVKGRHGEGTFTSDVSSYLEGQAAKEFIAWLVKGRDIQMTQSPSSLSASVGDRVTITCRASQWIGSQLSWYQQKPGKAPKLLIMWRSSLQSGVPSRFSGSGSGTDFTLTISSLQPEDFATYYCAQGAALPRTFGQGTKVEIKR
# notes: expressed in HEK293E cells, purified on protein L; also called 2xGLP-1 (7-37) A8G DOM7h-14 fusion
# B2: GLP-1 (7-37) A8G, helical linker, DOM7h-14 dAb fusion (DAT0120) (other)
# chain: HGEGTFTSDVSSYLEGQAAKEFIAWLVKGRGKEAAAKEAAAKEAAAKELAAKEAAAKEAAAKEAAAKELAADIQMTQSPSSLSASVGDRVTITCRASQWIGSQLSWYQQKPGKAPKLLIMWRSSLQSGVPSRFSGSGSGTDFTLTISSLQPEDFATYYCAQGAALPRTFGQGTKVEIKR
# notes: Single-chain genetic fusion of GLP-1 (7-37) A8G, helical linker and DOM7h-14; also called GLP-1 (7-37) A8G, helical linker, DOM7h-14 fusion; GLP-1 A8G, helical linker, DOM7h-14 fusion
# B3: Cynomolgus monkey serum albumin (CSA) (other, UniProt A2V9Z4 25-608, looked up)
# chain: DTHKSEVAHRFKDLGEEHFKGLVLVAFSQYLQQCPFEEHVKLVNEVTEFAKTCVADESAENCDKSLHTLFGDKLCTVATLRETYGEMADCCAKQEPERNECFLQHKDDNPNLPPLVRPEVDVMCTAFHDNEATFLKKYLYEVARRHPYFYAPELLFFAARYKAAFAECCQAADKAACLLPKLDELRDEGKASSAKQRLKCASLQKFGDRAFKAWAVARLSQKFPKAEFAEVSKLVTDLTKVHTECCHGDLLECADDRADLAKYMCENQDSISSKLKECCDKPLLEKSHCLAEVENDEMPADLPSLAADYVESKDVCKNYAEAKDVFLGMFLYEYARRHPDYSVMLLLRLAKAYEATLEKCCAAADPHECYAKVFDEFQPLVEEPQNLVKQNCELFEQLGEYKFQNALLVRYTKKVPQVSTPTLVEVSRNLGKVGAKCCKLPEAKRMPCAEDYLSVVLNRLCVLHEKTPVSEKVTKCCTESLVNRRPCFSALELDEAYVPKAFNAETFTFHADMCTLSEKEKQVKKQTALVELVKHKPKATKEQLKGVMDNFAAFVEKCCKADDKEACFAEEGPKFVAASQAALA
# notes: CSA is not spelled out where it is used; also called cynomolgus serum albumin; cyno serum albumin
# B4: Mouse GLP-1 receptor (receptor, UniProt O35659 22-463, looked up)
# chain: GPRPQGTTVSLSETVQKWREYRRQCQRFLTEAPLLATGLFCNRTFDDYACWPDGPPGSFVNVSCPWYLPWASSVLQGHVYRFCTAEGLWLHKDNSSLPWRDLSECEESKRGERNFPEEQLLSLYIIYTVGYALSFSALVIASAILVGFRHLHCTRNYIHLNLFASFILRALSVFIKDAALKWMYSTAAQQHQWDGLLSYQDSLGCRLVFLLMQYCVAANYYWLLVEGVYLYTLLAFSVFSEQRIFKLYLSIGWGVPLLFVIPWGIVKYLYEDEGCWTRNSNMNYWLIIRLPILFAIGVNFLIFIRVICIVVSKLKANLMCKTDIKCRLAKSTLTLIPLLGTHEVIFAFVMDEHARGTLRFIKLFTELSFTSFQGLMVAILYCFVNNEVQMEFRKCWERWRLEHLNIQRDCSMKPLKCPTSSVSSGATVGSSVYAATCQSSYS
# notes: whole, on cells
# B5: Rat GLP-1 receptor (receptor, UniProt P32301 22-463, looked up)
# chain: GPRPQGATVSLSETVQKWREYRHQCQRFLTEAPLLATGLFCNRTFDDYACWPDGPPGSFVNVSCPWYLPWASSVLQGHVYRFCTAEGIWLHKDNSSLPWRDLSECEESKQGERNSPEEQLLSLYIIYTVGYALSFSALVIASAILVSFRHLHCTRNYIHLNLFASFILRALSVFIKDAALKWMYSTAAQQHQWDGLLSYQDSLGCRLVFLLMQYCVAANYYWLLVEGVYLYTLLAFSVFSEQRIFKLYLSIGWGVPLLFVIPWGIVKYLYEDEGCWTRNSNMNYWLIIRLPILFAIGVNFLVFIRVICIVIAKLKANLMCKTDIKCRLAKSTLTLIPLLGTHEVIFAFVMDEHARGTLRFVKLFTELSFTSFQGFMVAVLYCFVNNEVQMEFRKSWERWRLERLNIQRDSSMKPLKCPTSSVSSGATVGSSVYAATCQNSCS
# notes: whole, on cells
# B6: Rat serum albumin (RSA) (other, UniProt P02770 25-608, looked up)
# chain: EAHKSEIAHRFKDLGEQHFKGLVLIAFSQYLQKCPYEEHIKLVQEVTDFAKTCVADENAENCDKSIHTLFGDKLCAIPKLRDNYGELADCCAKQEPERNECFLQHKDDNPNLPPFQRPEAEAMCTSFQENPTSFLGHYLHEVARRHPYFYAPELLYYAEKYNEVLTQCCTESDKAACLTPKLDAVKEKALVAAVRQRMKCSSMQRFGERAFKAWAVARMSQRFPNAEFAEITKLATDVTKINKECCHGDLLECADDRAELAKYMCENQATISSKLQACCDKPVLQKSQCLAEIEHDNIPADLPSIAADFVEDKEVCKNYAEAKDVFLGTFLYEYSRRHPDYSVSLLLRLAKKYEATLEKCCAEGDPPACYGTVLAEFQPLVEEPKNLVKTNCELYEKLGEYGFQNAVLVRYTQKAPQVSTPTLVEAARNLGRVGTKCCTLPEAQRLPCVEDYLSAILNRLCVLHEKTPVSEKVTKCCSGSLVERRPCFSALTVDETYVPKEFKAETFTFHSDICTLPDKEKQIKKQTALAELVKHKPKATEDQLKTVMGDFAQFVDKCCKAADKDNCFATEGPNLVARSKEALA
# B7: Human GLP-1 receptor (receptor, UniProt P43220 24-463, looked up)
# chain: RPQGATVSLWETVQKWREYRRQCQRSLTEDPPPATDLFCNRTFDEYACWPDGEPGSFVNVSCPWYLPWASSVPQGHVYRFCTAEGLWLQKDNSSLPWRDLSECEESKRGERSSPEEQLLFLYIIYTVGYALSFSALVIASAILLGFRHLHCTRNYIHLNLFASFILRALSVFIKDAALKWMYSTAAQQHQWDGLLSYQDSLSCRLVFLLMQYCVAANYYWLLVEGVYLYTLLAFSVLSEQWIFRLYVSIGWGVPLLFVVPWGIVKYLYEDEGCWTRNSNMNYWLIIRLPILFAIGVNFLIFVRVICIVVSKLKANLMCKTDIKCRLAKSTLTLIPLLGTHEVIFAFVMDEHARGTLRFIKLFTELSFTSFQGLMVAILYCFVNNEVQLEFRKSWERWRLEHLHIQRDSSMKPLKCPTSSLSSGATAGSSMYTATCQASCS
# notes: whole, on cells
# Experiments:
# [1] = molecular target: Human serum albumin (HSA) (human, UniProt P02768 25-609); assay: SPR (Biacore), albumin on CM5 chip, fusion in flow
# Experimental: (§1) The analysis was performed using a CM5 Biacore chip (carboxymethylated dextran matrix) that was coated with serum albumin. About 1000 resonance units (RUs) of each serum albumin to be tested (human, rat and mouse serum albumin) was immobilised in acetate buffer pH 5.5. […] Each fusion molecule tested was expressed in mammalian tissue culture as described in the example above.
# (§2) Affinity (KD) was calculated from the BIACORE traces by fitting on-rate and off-rate curves to traces generated by concentrations of dAb in the region of the KD.
# [2] = molecular target: B6; assay: SPR (Biacore), albumin on CM5 chip, fusion in flow
# Experimental: as §1, §2
# [3] = molecular target: Mouse serum albumin (MSA) (mouse, UniProt P07724 25-608); assay: SPR (Biacore), albumin on CM5 chip, fusion in flow
# Mouse serum albumin (MSA), sequence (P07724 25-608 limits assumed): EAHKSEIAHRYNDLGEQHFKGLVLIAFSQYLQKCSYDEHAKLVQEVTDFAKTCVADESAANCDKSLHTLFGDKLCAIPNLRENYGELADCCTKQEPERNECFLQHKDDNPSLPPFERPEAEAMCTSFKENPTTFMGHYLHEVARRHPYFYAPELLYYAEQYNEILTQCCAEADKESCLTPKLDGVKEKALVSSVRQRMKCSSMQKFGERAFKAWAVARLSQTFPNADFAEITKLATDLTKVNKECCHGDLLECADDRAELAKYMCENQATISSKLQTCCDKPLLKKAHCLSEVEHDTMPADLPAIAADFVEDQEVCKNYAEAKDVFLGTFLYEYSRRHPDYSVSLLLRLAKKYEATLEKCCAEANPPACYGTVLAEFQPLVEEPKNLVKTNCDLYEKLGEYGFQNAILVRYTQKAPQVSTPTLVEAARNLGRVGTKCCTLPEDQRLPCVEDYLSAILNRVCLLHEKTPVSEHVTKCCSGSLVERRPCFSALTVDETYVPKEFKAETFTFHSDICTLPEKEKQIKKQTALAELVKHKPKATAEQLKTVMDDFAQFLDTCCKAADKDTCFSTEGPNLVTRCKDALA
# Experimental: as §1, §2
# [4] = molecular target: T1, Exendin 4, (G4S)3, linker DOM7h-14-10 fusion (DMS7139); assay: SPR (Biacore), albumin on CM5 chip, fusion in flow
# T1 construct: expressed in E. coli with a cleaved OmpT AWA leader; also called DSM7139
# Experimental: (§3) The analysis was performed using two CM5 chips (carboxymethylated dextran matrix) that were coated with serum albumin. ˜500 resonance units (RUs) of each serum albumin was immobilised in acetate buffer pH 4.5. The first chip had flow cell 1 uncoated and blocked and flow cell 2 was coated with MSA (560Rus). The second chip had flow cell 1 uncoated and blocked, flow cell 2 was coated with HSA, flow cell 3 was coated with CSA and flow cell 4 was coated with RSA. For all serum albumins, the aim was to coat in the region of 350 RUs of protein onto the chip.
# as §2
# [5] = molecular target: T2, Exendin 4, (G4S)3, linker DOM7h-11-15 fusion (DMS7143); assay: SPR (Biacore), albumin on CM5 chip, fusion in flow
# T2 construct: expressed in E. coli with a cleaved OmpT AWA leader
# Experimental: as §3, §2
# [6] = molecular target: T3, Exendin 4 (G4S linker)3 DOM7h-14 dAb fusion (DAT0115); assay: SPR (Biacore), biotinylated albumin on SA chip, fusion in flow
# T3 construct: also called Exendin 4 (G4S)3 DOM7h-14 fusion
# Experimental: The analysis was performed using a streptavidin chip (SA) coated with biotinylated serum albumin. 200-1000 resonance units (RUs) of each serum albumin was immobilised on the chip. Flow cell 1 was uncoated, flow cell 2 was coated with HSA, flow cell 3 was coated with RSA and flow cell 4 was coated with CSA.
# as §2
# [7] = molecular target: T1, Exendin 4, (G4S)3, linker DOM7h-14-10 …; assay: melanophore functional GLP-1R bioassay
# [8] = molecular target: T3, Exendin 4 (G4S linker)3 DOM7h-14 dAb …; assay: 6CRE-luciferase reporter in CHO cells with human GLP-1R (called GLP-1R binding assay)
# [9] = molecular target: T4, Exendin 4-DOM7h-14 dAb fusion (DAT0116); assay: as above
# T4 construct: also called Exendin 4 DOM7h-14 fusion
# [10] = molecular target: T5, Exendin 4, helical linker, DOM7h-14 dAb fusion (DAT0117); assay: as above
# T5 construct: also called Exendin 4, helical linker, DOM7h-14 fusion
binder,measurement,setting,value
B1,Kd,[1],150 nM
same,Kd,[2],700 nM
same,Kd,[3],130 nM
B2,Kd,[1],110 nM
same,Kd,[2],800 nM
same,Kd,[3],110 nM
B3,Kd,[4],42.3 nM
same,Kd,[5],38.9 nM
same,Kd,[6],2000 nM
B4,binding result,[7],binds
B5,binding result,[7],binds
B6,Kd,[4],31.5 nM
same,Kd,[5],219 nM
same,Kd,[6],2000 nM
B7,binding result,[7],binds
same,binding result,[8],binds
same,binding result,[9],binds
same,binding result,[10],binds
